Measured values as given in publication PMC6077130 (Heliyon, 2018).

Target: T1, N-terminus of Glis3 (aa 1-653) fused to the Gal4 DBD (mouse, UniProt F6SGN4 1-653)
T1 sequence (looked up): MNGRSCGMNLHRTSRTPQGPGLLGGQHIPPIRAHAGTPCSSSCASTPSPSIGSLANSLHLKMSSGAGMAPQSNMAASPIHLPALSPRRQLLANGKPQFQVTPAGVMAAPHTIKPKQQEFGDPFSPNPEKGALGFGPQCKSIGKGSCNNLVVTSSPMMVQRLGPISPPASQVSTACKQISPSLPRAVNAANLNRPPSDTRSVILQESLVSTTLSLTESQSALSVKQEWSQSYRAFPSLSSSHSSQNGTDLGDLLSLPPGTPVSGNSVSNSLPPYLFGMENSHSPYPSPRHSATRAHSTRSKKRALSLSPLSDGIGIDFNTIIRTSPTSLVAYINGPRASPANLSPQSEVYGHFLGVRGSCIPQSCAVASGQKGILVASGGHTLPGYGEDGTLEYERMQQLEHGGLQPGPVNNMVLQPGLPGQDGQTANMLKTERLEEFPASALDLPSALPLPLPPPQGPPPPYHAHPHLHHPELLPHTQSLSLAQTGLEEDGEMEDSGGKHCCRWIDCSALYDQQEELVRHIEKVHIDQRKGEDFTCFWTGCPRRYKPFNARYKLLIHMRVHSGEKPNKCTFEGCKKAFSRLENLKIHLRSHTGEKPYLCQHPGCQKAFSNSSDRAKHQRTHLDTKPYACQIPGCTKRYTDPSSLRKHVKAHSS
Test: two-hybrid

B1: full length PIASy fused to the Gal4 AD (VP16-PIASy) (natural protein, UniProt Q9JM05 1-507, looked up)
chain: MAAELVEAKNMVMSFRVSDLQMLLGFVGRSKSGLKHELVTRALQLVQFDCSPELFKKIKELYETRYAKKSAEPGPQAPRPLDPLALHSMPRTPLSGPTVDYPVLYGKYLNGLGRLPTKTLKPEVRLVKLPFFNMLDELLKPTELVPQSAEKLQESPCIFALTPRQVEMIRNSRELQPGVKAVQVVLRICYSDTSCPQEDQYPPNIAVKVNHSYCSVPGYYPSNKPGVEPKRPCRPINLTHLMYLSSATNRITVTWGNYGKSYSVALYLVRQLTSSDLLQRLKTIGVKHPELCKALVKEKLRLDPDSEIATTGVRVSLICPLVKMRLSVPCRAETCAHLQCFDAVFYLQMNEKKPTWMCPVCDKPAAYDQLIIDGLLSKILSECEGADEIEFLAEGSWRPIRAEKEPSCSPQGPILVLGTSDANGLAPASSTPGIGSGLSGPGSAGSGAGAAGSLENGKTGADVVDLTLDSSSSSEDEDEDEDDDEDEDEGPRPKRRCPFQKGLVPAC
- fold increase in luciferase expression (two-hybrid, chimeras co-expressed): 1.5 fold
